Experimental data reported in PMC9124243.
Like-named read-outs stand apart in the source and are kept apart here.

What was measured:
[1] = target: Mycobacterium tuberculosis DnaK, wild-type, full-length (M. tuberculosis) (UniProt P9WMJ9)
[2] = target: Mycobacterium tuberculosis DnaK, wild-type, full-length (M. tuberculosis) (UniProt P9WMJ9); remark: listed apart in the source

Substance “Pz-Val-Val-Pro-photoLeu-OMe (7) (peptide)” has an IC50 in DnaK-DnaJ2-GrpE ATPase dose-response assay [1] of 52.5 µM.
Pz-Val-Val-Pro-Leu-OH (2) (peptide) was tested, and the IC50 in DnaK-DnaJ2-GrpE ATPase dose-response assay [2] was 192 µM.
